Target: thrombin (UniProt P00734;P00734 328-363;364-622)
Assay: fluorescence turn-on (FRET Pdots to BHQ-aptamer); 130 nM thrombin, Pdots present; F/F0 = 6.5; Buffer, salt and pH not given in the material (Hepes listed as reagent); incubation 60 min; Pdots-BHQ-TBA quenching plot at 298 K

GGTTGGTGTGGTTGG (ssDNA) [BHQ-TBA (BHQ-labelled thrombin aptamer)]
binding result: binds

Reference: PMC5855441, “Detection of Thrombin Based on Fluorescence Energy Transfer between Semiconducting Polymer Dots and BHQ-Labelled Aptamers”
